This is an account of results in US20070243194A1.

Assay [1] addresses human IGF-1R(1-902)-His10 (human) (UniProt P08069). The assay is described as follows: ELISA on plates coated with rh-IGF-1R, HRPO anti-mouse IgG Fc [a]. In general terms: ELISA stands for enzyme-linked immunosorbent assay.
In assay [2] the target is human IGF-1R on cells (human) (UniProt P08069). The assay is described as follows: flow cytometry on MCF-7 cells, FITC anti-mouse IgG; x axis is log Ab conc. (nM). On the technique in general: A flow cytometer gives signals particle by particle.
Chain of human IGF-1R on cells (human) (P08069 31-740, chain 1 of 2): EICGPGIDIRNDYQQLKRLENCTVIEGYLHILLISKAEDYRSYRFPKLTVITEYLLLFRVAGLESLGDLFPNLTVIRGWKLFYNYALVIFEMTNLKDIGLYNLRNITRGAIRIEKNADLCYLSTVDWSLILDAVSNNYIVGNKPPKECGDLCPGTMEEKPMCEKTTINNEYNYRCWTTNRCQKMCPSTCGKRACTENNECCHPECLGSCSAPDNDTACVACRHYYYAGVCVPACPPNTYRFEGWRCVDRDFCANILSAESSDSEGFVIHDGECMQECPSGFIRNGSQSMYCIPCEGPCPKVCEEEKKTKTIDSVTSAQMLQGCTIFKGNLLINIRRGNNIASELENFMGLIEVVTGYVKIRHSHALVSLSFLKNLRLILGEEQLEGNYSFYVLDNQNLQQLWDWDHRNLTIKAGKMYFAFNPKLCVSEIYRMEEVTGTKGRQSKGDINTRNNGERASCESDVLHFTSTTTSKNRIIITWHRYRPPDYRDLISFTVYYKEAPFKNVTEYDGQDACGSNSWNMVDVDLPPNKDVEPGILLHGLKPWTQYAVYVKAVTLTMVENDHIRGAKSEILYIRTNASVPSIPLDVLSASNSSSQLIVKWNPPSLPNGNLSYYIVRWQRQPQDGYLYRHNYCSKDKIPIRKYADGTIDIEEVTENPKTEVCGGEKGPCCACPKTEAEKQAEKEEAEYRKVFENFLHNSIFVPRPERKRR
Chain of human IGF-1R on cells (human) (P08069 741-1367, chain 2 of 2): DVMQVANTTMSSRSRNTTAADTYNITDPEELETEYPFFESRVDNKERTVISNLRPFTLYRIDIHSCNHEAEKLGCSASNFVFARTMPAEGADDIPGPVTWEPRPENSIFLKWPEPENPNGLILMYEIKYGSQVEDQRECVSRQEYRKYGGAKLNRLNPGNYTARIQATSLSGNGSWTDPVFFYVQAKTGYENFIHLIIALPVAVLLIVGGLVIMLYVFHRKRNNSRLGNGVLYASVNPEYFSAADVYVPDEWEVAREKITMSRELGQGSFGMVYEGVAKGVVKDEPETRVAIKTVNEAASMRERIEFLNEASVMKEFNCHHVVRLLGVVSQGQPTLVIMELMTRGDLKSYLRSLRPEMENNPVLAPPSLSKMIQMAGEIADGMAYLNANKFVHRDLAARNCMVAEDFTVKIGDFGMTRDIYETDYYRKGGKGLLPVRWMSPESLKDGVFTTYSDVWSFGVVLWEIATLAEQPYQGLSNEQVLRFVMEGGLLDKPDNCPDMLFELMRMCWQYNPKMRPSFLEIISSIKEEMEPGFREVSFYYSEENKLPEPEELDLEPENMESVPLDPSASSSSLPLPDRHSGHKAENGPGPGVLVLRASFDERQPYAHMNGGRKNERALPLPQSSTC

Broadly, the EC50 (read off the curve) is the concentration that produces a half-maximal response.

Chain of human IGF-1R(1-902)-His10 (human) (P08069 other isoform, or with tags, fused parts or gaps): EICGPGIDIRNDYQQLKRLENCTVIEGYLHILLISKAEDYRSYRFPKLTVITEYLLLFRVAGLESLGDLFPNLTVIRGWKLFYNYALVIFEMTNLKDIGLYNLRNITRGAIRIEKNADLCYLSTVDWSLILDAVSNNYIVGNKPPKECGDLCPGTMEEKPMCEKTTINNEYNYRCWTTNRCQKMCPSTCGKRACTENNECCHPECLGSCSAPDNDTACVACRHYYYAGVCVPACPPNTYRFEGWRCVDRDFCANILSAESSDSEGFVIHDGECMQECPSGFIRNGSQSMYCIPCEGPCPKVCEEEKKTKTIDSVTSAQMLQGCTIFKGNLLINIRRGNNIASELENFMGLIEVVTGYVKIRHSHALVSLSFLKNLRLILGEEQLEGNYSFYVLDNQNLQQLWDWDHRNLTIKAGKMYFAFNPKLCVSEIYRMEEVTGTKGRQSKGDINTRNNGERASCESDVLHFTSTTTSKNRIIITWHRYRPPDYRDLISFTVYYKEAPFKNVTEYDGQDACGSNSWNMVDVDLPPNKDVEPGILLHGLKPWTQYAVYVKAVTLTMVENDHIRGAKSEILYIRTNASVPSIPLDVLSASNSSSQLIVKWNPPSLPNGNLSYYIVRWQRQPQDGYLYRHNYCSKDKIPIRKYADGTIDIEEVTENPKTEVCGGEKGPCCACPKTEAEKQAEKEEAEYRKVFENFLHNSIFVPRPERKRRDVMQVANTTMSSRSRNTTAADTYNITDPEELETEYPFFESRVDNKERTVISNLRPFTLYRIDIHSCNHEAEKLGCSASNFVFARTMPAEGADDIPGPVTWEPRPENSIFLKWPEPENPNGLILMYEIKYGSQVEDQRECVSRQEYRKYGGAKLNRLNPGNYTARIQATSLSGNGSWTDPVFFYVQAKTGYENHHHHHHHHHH

Turning to IR3 (antibody), the EC50 (read off the curve) in assay [1] is 0.2 nM; in assay [2], 5 nM.
